pKd: −log10 of the molar value. Entries after “also recorded” stand apart in the source; their conditions may differ. Where no end group is shown, it is not given here.

Consider 12 compounds from EP0591697B1, “Cloning and characterization of the growth hormone releasing hormone receptor” (Thorner, Michael Oliver, priority 1992, dated 1994).

Assay [1] addresses T1, GHRH-R (Homo sapiens, UniProt Q02643).
T1 construct: expressed in transfected cells
T1 sequence (Q02643 23-423): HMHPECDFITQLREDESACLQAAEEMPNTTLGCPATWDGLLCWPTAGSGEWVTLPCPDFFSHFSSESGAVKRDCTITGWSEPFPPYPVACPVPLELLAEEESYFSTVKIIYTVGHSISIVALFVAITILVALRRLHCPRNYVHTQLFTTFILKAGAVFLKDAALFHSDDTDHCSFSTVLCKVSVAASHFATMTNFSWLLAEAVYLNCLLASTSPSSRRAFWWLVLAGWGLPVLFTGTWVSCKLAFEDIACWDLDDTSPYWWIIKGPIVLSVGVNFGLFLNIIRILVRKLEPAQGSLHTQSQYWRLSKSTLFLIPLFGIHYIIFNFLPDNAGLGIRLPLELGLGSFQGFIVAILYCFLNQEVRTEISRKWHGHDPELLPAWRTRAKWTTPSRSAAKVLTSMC
Briefly: Iodinated GHRHa binding to COS cells / COS cell membranes transfected with pCDM8 containing HAP 7 cDNA. Particulars: for binding of iodinated GHRH in presence of peptide: 100 nM of peptide.

For assay [2], the system named is GHRH-R. The assay can be described thus: GHRH binding assay in crude anterior pituitary membrane pellets (125I-GHRHa). More on the design: species or system ovine. Particulars: for displacement of GHRH in ovine pituitary: at 500 nM; for competition for the GHRHa binding site: at 100 nanomolar concentrations. The procedure:
Specific binding is defined as the difference in the binding seen with 20 pM iodinated analog alone and binding of the analog in the presence of 10 nM non-iodinated GHRHa.
All steps were performed at 4°C. Frozen ovine or bovine anterior pituitaries (ovine: approximately 1 gm/pituitary obtained from Dr. Ian Clarke, Melbourne, Australia; bovine: approximately 2.5 gm/pituitary special handling from Pel-Freez, of Rogers, Arkansas) were washed of blood, cleaned of connective tissue and homogenized (using a Dounce homogenizer) in 50mM HEPES buffer, 100 mM NaCl, 10mM EDTA, 0.1 µM EGTA, pH 7.4 with 0.5 mM PMSF (phenyl methyl sulfonyl fluoride), 10 µg/ml leupeptin, 10 µg/ml pepstatin A, and 200 U/ml (units/ml) aprotinin. This buffer is used to remove endogenous GTP which might be bound to G proteins and to restore high affinity binding. The homogenate was spun at top speed in a microfuge and the supernatant discarded. The upper (membrane) layer of the pellet was then gently resuspended in binding buffer containing 50 mM Tris buffer, 5 mM EGTA, 5 mM MgCl2, 50µg/ml alamethicin, 30 µg/ml bacitracin and other protease inhibitors as above.
1/50 pituitary equivalent per tube was incubated in binding buffer with approximately 100,000 counts of iodinated probe in a volume of 500 µl at room temperature for 1 hour. The total counts delivered and the percent of counts bound for each tube was determined with 3 to 6 replicates per experimental condition. Saturation binding profiles were analyzed with the computer program Ligand which performs a statistically weighted least squares fit to the exact ligand binding equation in nontransformed coordinates.

Assay [3] relates to GHRH-R. The assay can be described thus: Photoaffinity cross-linking of receptor in pituitary membranes, SDS-PAGE autoradiography. The assay is classed as binding, ovine. On the procedure:
Photoprobe binding in ovine pituitary membrane pellets was determined by γ-counting and UV induced cross-linking was examined by autoradiagraphy of sodium dodecylsulfate polyacrylamide electrophoresis (SDS-PAGE) gels. ^125I-GHRHa-ANB-NOS probe bound with an affinity of about one nanomole, nM (compared to about 160 picomole, pM, for GHRHa).
Photoprobe binding to membranes was evaluated with crude membrane binding assay and then analyzed further by SDS-PAGE electrophoresis to identify the binding sites. Photoprobes were incubated in the dark, photolysed for 10 minutes with a long wave (366 nm) UV lamp, and then the samples were pelleted. The pellets were counted and then extracted by boiling directly in SDS sample buffer (total SDS extracts). Alternatively, the labeled pellets were extracted in a mild detergent solution (5 mM CHAPS) centrifuged, and the chloroform/methanol concentrated supernatants denatured with SDS buffer (CHAPS extracts). These samples were then electrophoresed in SDS gels and autoradiographed.

Assay [4] addresses T2, secretin and VIP receptors (Homo sapiens, UniProt P47872).
T2 construct: host or cells: human pancreas
Particulars: human pancreas, cited from earlier work; for inhibition: at 10 µM, 125I-secretin.

T2 sequence (P47872 23-440): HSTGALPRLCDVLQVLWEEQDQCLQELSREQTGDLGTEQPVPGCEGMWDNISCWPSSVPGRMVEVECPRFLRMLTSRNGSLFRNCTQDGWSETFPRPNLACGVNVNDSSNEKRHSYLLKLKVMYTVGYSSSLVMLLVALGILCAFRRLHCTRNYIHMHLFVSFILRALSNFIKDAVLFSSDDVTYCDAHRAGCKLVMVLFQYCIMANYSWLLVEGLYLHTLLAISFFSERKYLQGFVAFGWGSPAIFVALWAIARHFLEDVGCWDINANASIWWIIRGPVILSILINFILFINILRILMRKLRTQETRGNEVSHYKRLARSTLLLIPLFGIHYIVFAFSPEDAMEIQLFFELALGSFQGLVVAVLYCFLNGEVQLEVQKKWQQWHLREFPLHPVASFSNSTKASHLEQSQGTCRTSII

For “PHM: competing peptide of the VIP family tested at 100 nM (HADGVFTSDFSKLLGQLSAKKYLESLM; ends and bridges not checked; UniProt P01282 81-107, looked up)”, in the assay with GHRH-R [1], the “binding of iodinated GHRH in presence of peptide” value (from here on “binding of iodinated GHRH”) is reported as “uneffected”.

As for galanin, in the assay with GHRH-R [1], the “binding of iodinated GHRH” value is recorded as “uneffected”.

For the compound VIP: vasoactive intestinal peptide, in the assay with GHRH-R [2], the “displacement of GHRH in ovine pituitary” value is listed as “not” and the “competition for the GHRHa binding site” value is listed as “no competition; also recorded: did not compete”. Moreover, in the assay on GHRH-R [3] (100 nM VIP), the “effect on 55 kDa cross-linked band” value is reported as “unaffected”. Further, the “effect on bound counts of GHRHa” value in the assay with GHRH-R [1] (100 nM VIP, transfected COS cells, Figure 15) was “no effect”. Moreover, the “binding of iodinated GHRH” value in the assay with GHRH-R [1] is given as “uneffected”. Also, in assay [4], the inhibition is reported as 20%.

For somatostatin, the “binding of iodinated GHRH” value with GHRH-R [1] is reported as “uneffected”.

As for parathyroid hormone, in the assay with GHRH-R [1], the “binding of iodinated GHRH” value was “uneffected”.

Regarding `O[C@H](CS)[C@H](O)CS` (racemic) [DTT, dithiothreitol], in the assay with GHRH-R [2] (1 mM dithiothreitol), the “specific binding in the GHRH assay after preincubation” value is recorded as “completely eliminated”.

In the case of secretin, the “binding of iodinated GHRH” value with GHRH-R [1] is on record as “uneffected”.

With helodermin, the pKd in assay [4] (using 125I-secretin, read-out: Kds) was 6.70.

As for calcitonin, in the assay with GHRH-R [1], the “binding of iodinated GHRH” value is “uneffected”.

For the compound GHRH(1-29)-NH2, the inhibition in assay [4] was 20%.

With `CC[C@H](C)[C@H](NC(=O)CNC(=O)[C@H](CC(=O)O)NC(=O)[C@H](CO)NC(=O)[C@@H](N)Cc1c[nH]cn1)C(=O)N[C@@H](Cc1ccccc1)C(=O)N[C@H](C(=O)N[C@@H](CC(=O)O)C(=O)N[C@@H](CO)C(=O)N[C@@H](Cc1ccc(O)cc1)C(=O)N[C@@H](CO)C(=O)N[C@@H](CCCNC(=N)N)C(=O)N[C@@H](Cc1ccc(O)cc1)C(=O)N[C@@H](CCCNC(=N)N)C(=O)N[C@@H](CCCCN)C(=O)N[C@@H](CCC(N)=O)C(=O)N[C@@H](CCSC)C(=O)N[C@@H](C)C(=O)N[C@H](C(=O)N[C@@H](CCCCN)C(=O)N[C@@H](CCCCN)C(=O)N[C@@H](Cc1ccc(O)cc1)C(=O)N[C@@H](CC(C)C)C(=O)N[C@@H](C)C(=O)N[C@@H](C)C(=O)N[C@H](C(=O)N[C@@H](CC(C)C)C(=O)NCC(=O)N[C@@H](CCCCN)C(=O)N[C@@H](CCCNC(=N)N)C(=O)N[C@@H](Cc1ccc(O)cc1)C(=O)N[C@@H](CCCCN)C(=O)N[C@@H](CCC(N)=O)C(=O)N[C@@H](CCCNC(=N)N)C(=O)N[C@H](C(=O)N[C@@H](CCCCN)C(=O)N[C@@H](CC(N)=O)C(=O)N[C@@H](CCCCN)C(N)=O)C(C)C)C(C)C)C(C)C)[C@@H](C)O` [PACAP], in the assay with GHRH-R [2], the “displacement of GHRH in ovine pituitary” value is recorded as “significant displacement” and the “competition for the GHRHa binding site” value is listed as “no competition; also recorded: did not compete”.

For the compound `Nc1nc2c(ncn2[C@@H]2O[C@H](COP(=O)(O)OP(=O)(O)OP(O)(O)=S)[C@@H](O)[C@H]2O)c(=O)[nH]1` [GTPγS], in the assay on GHRH-R [2] (50 µM GTPγS), the “displacement of both photoprobes from membrane pellets” value is recorded as “partially displaced” and the “reduction of specific binding of GHRHa radioligand” value is on record as “up to 65%”. In the assay on GHRH-R [3] (50 µM GTPγS), the “reduction of 55 kDa cross-linked band” value is “over 50%”.
